Consider one molecule from patent publication US10138280B2, “Polypeptides targeting glycosylated MUC2 proteins, methods of synthesis, their nucleic acids and uses thereof” (INSTITUT PASTEUR, priority 2011, dated 2018).

The target of the assay is T1, human colonic mucus (Muc2) (Homo sapiens, UniProt Q02817).
T1 construct: Segments of human colon (ascending, descending and sigmoid colon) were obtained from fully informed patients undergoing surgery; from tissue; host or cells: healthy human colon segments (live explants, mucus collected from them, Carnoy- or formol-fixed sections)
The assay is described as follows: Immunofluorescent staining of human mucus and fixed human colon samples. To be noted: human colon mucus from ex vivo samples and fixed purified human mucus. The text has this:
FIGS. 4A-4B. Cy5-MUB70 is specifically binding to the glycosylated moiety of Muc2 secreted in the colon mucus layer. (FIG. 4A) Immunodetection of Muc2, Muc5ac, Muc5b and Muc6 (dotblot analysis) on human mucus extracts eluted after a pulldown assay performed with biot-MUB70 on avidin conjugated beads (see Methods). Biotin is used as a negative control. Immunodetection of Muc2 (dotblot analysis) on deglycosylated mucus extracts eluted after a pulldown assay performed with biot-MUB70 on avidin conjugated beads. Non-deglycosylated mucus extract is used as a positive control. (FIG. 4B) Co-localization of Muc2 (green) and Cy5-MUB (blue) observed on fixed (Carnoy) human colon samples. Actin is stained in red (Phall.RRX). Observations are performed using a confocal microscope. Bars is 20 μm.
FIGS. 9A-9B. (FIG. 9A) Co-localization of Muc2 (green) and Cy5-MUB (blue) performed by immunofluorescent detection on human mucus extract collected on ex vivo tissues using an epifluorescent microscope. Bar is 50 μm. […]
For immunofluorescence assay mouse α-MUC2 pAbs (Santa Cruz sc-15334) was diluted 1:1000 and FITC-conjugated rabbit anti-mouse was diluted 1:2000. Host cells were detected with DAPI (nuclei, […]) or using Phalloidin-Rhodamine red X (RRX)-conjugated donkey anti-mouse antibodies (Jackson Immunoresearch Antibodies) as an actin marker (stained red); both were used at a final dilution of 1:1000. […]

B1: Cy5-MUB70: Cy5-labelled MUB70 polypeptide, labelled via Cy5 maleimide on N-terminal cysteine (conjugate)
peptide: CVHVQYIDGETDQMLRQDDLDGYTDETIPYSTAEGIKKFEGDGYELFKDNFPAGEKFDNDDTNDQFYTVIF
As for B1, the “colocalization with Muc2” value is “colocalization detection of Muc2 and Cy5-MUB70”.
